These results are taken from patent publication US20220204583A1 (published 2022).

For the assay, the target named is MBECs (cultured cells). Briefly: equilibrium titration on cultured MBECs; apparent affinity.

Changes are numbered by the printed parent chain.

B1: VLR-Fc-46 (Fc fusion)
chain: ACPSQCSCSGTTVDCSGKSLASVPTGIPTTTRWLHLHRNQLTKLEPGVFDSLTQLTYLNLGGNQLTALPVGVFDKLTNLKELKLYSNQLQALSEGLFDRLGKLQHLDLSKNQLKSIPHGAFDRLSSLTHAYLFGNPWDCECRDIMYLRNWVADHTSIVMRWDGKAVNDPDSAKCAGTNTPVRAVTEASTSPSKCPGYVAT
Turning to B1, the Kd stood at 68.2 nM.

B2: VLR-Fc-11 (Fc fusion)
chain: B1 chain with T12E, D14R, S16E, G17S, K18R, T25A, W33R
On to B2, for which the Kd amounted to 10.4 nM.

B3: VLR-Fc-30 (Fc fusion)
chain: B1 chain with R32Q, W33I, H35R, H37Y, L41I
For B3, the Kd amounted to 5.4 nM.
